Laboratory results from patent US20240210403A1 (MARTELL DIAGNOSTIC LABORATORIES, published 2024).

Molecular target: T1, human HER2 protein present in serum samples (human, UniProt P04626 23-652)
T1 construct: extracellular domain; Endogenous analyte in human sera; also called sHER2; serum HER2
Experiment: sandwich ELISA, 1B7 capture/1G5-biotin detection
Description: Standards, controls and samples were pipetted into the wells, and any HER2 present was bound by the immobilized antibody. […] Following a wash to remove unbound conjugate, a substrate solution was added to the wells, and color developed in proportion to the amount of HER2 bound. After color development was stopped, the absorbance was measured using a microplate spectrophotometer.
Sample Buffer/Antibody Diluent (10% Casein in 1×PBS) was prepared (˜40 mL/plate). After incubation, plates were washed on a plate washer as described herein. 245 μL of Sample Buffer then was pipetted into a labeled snap-cap tube for each patient sample to be tested, as well as for each standard and control. A 1:50 dilution of each patient sample as well as each standard and control was generated (e.g., 5 μL of each sample in 95 μL of Sample Buffer). 100 μL of each sample (patient, standard, control, and blank (i.e., 100 μL of Sample Buffer)) was pipetted into their respective wells as indicated on the plate map. The wells were covered with an adhesive plate cover, placed in a microplate shaker (Corning LSE Digital Microplate Shaker) at 500 rpms for 1 min, and then incubated at room temperature for 1 hour.
After incubation, plates were washed on a plate washer as described herein. […] 100 μL was pipetted into each well and the plate was covered with an adhesive plate cover. […]

B1: 1B7 anti-HER2 rabbit monoclonal antibody (antibody, V domains shown)
VH: QSVEESGGRLVTPGTPLTLTCTVSGIDLSDYAMGWVRQAPGKGLEYIGIISSSGNTHYARWARGRFTISKTSSTTVDLKMTSLTTEDTATYFCARNYPGYANYALWGQGTLVTVSS
VL: RIVMTQTPASVSAAVGGTVTIKCQASESISNWLSWYQQKPGQPPKLLIYRASTLASGVPSRFSGSGSGTEYTLTISDLECADAATYYCQQDYIYNDIDNAFGGGTEVVVKG
notes: Recombinant rabbit IgG (gamma 1 heavy, kappa 1 light) expressed in 293F cells; Used as the coated capture antibody; also called Capture Antibody (1B7; Yurogen)
  binding result: binds
